B1: PYL4H82R V97A (AtPYL H82 and V97A) (receptor)
chain: MLAVHRPSSAVSDGDSVQIPMMIASFQKRFPSLSRDSTAARFHTHEVGPNQCCSAVIQEISAPISTVWSVVRRFDNPQAYKRFLKSCSVIGGDGDNAGSLRQVHVVSGLPAASSTERLDILDDERHVISFSVVGGDHRLSNYRSVTTLHPSPISGTVVVESYVVDVPPGNTKEETCDFVDVIVRCNLQSLAKIAENTAAESKKKMSL
notes: also called PYL4H82R (found combined with V97A)
B2: PYL4A194T: AtPYL4 ABA receptor mutant polypeptide with A194T substitution (SEQ ID NO. 60; nucleic acid SEQ ID NO: 55); also over-expressed in plants (protein, listed as Arabidopsis thaliana)
chain: MLAVHRPSSAVSDGDSVQIPMMIASFQKRFPSLSRDSTAARFHTHEVGPNQCCSAVIQEISAPISTVWSVVRRFDNPQAYKHFLKSCSVIGGDGDNVGSLRQVHVVSGLPAASSTERLDILDDERHVISFSVVGGDHRLSNYRSVTTLHPSPISGTVVVESYVVDVPPGNTKEETCDFVDVIVRCNLQSLAKITENTAAESKKKMSL

Experiments:
[1] = target: T1, PP2CA (clade A protein phosphatase 2C, At3g11410) (Arabidopsis thaliana, UniProt P49598 1-399, limits assumed); test: yeast two-hybrid growth assay, absence of ABA; H82R was found combined with V97A
T1 construct: BiFC: PP2CA-YFPN (pSPYNE-35S); also called AtPP2CA
T1 sequence (looked up): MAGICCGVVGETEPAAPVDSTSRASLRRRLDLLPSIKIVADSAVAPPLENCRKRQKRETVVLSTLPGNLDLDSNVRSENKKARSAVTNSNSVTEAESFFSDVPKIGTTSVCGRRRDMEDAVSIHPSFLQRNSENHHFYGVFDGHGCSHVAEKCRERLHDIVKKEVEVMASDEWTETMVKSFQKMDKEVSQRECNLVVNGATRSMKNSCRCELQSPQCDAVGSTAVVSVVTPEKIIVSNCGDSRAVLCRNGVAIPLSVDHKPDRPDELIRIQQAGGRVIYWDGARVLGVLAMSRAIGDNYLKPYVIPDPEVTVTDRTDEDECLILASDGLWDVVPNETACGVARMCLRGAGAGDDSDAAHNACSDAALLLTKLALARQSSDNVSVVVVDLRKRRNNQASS

PP2CA [2] = test: In vitro phosphatase activity assay with pNPP substrate, PP2CA; format: biochemical, Arabidopsis; conditions: absence of ABA
Experimental: (§1) Phosphatase activity was measured using as a substrate either pNPP or phosphorylated ΔC-ABF2, ΔC-ABI5 and SLAC11-186 proteins. For the pNPP substrate, assays were performed in a 100 μl solution containing 25 mM Tris-HCl pH 7.5, 2 mM MnCl2 and 5 mM pNPP. Assays contained 2 μM phosphatase (PP2CA or HAB1), 4 μM receptor and the indicated concentrations of ABA. Phosphatase activity was recorded with a ViktorX5 reader at 405 nm every 60 seconds over 30 minutes and the activity obtained after 30 minutes is indicated in the graphics. In order to obtain phosphorylated ΔCABF2, ΔC-ABI5 and SLAC11-186 proteins, OST1 phosphorylation assays were done basically as described previously (Dupeux et al., 2011 b). ΔC-ABF2 and SLAC11-186 N-terminal fragments were prepared as described (Antoni et al., 2012; Vahisalu et al., 2010). ΔC-ABI5 recombinant protein (amino acid residues 1-200, containing the C1, C2 and C3 target sites of ABA-activated SnRK2s) was expressed in the pETM11 vector as described above. The reaction mixture containing the OST1 kinase and either ΔCABF2, ΔC-ABI5 or SLAC11-186 recombinant proteins were incubated for 50 min at room temperature in 30 μl of kinase buffer: 20 mM Tris-HCl pH 7.8, 20 mM MgCl2, 2 mM MnCl2, and 3.5 μCi of γ-32ATP (3000 Ci/mmol). Thus, OST1 was autophosphorylated and in turn it phosphorylated ΔC-ABF2, ΔC-ABI5 and SLAC11-186 proteins. Next, they were used as substrates of PP2CA that was preincubated (or not) for 10 with PYL4 or PYL4A194T (1:10 phosphatase:receptor ratio) either in the absence or presence of 30 μM ABA. The reaction was stopped by adding Laemmli buffer and the proteins were separated by SDS-PAGE using an 8% acrylamide gel and transferred to an Immobilon-P membrane (Millipore). Radioactivity was detected and quantified using a Phosphorimage system (FLA5100, Fujifilm). After scanning, the same membrane was used for Ponceau staining. The data presented are averages of at least three independent experiments.

PP2CA [3] = target: PP2CA (Arabidopsis thaliana, UniProt O80920+P49598, A194T); test: as above; format: biochemical; set-up: made in house; host or cells: E. coli BL21 (DE3); conditions: for inhibitory effect on the activity of PP2CA with respect to PYL4: absence of ABA, 2 μM phosphatase, 4 μM receptor
Experimental: as §1

Row | Molecule | binding result [1] | effect on PP2CA activity (PP2CA [2]) | inhibitory effect on the activity of PP2CA with respect to PYL4 (PP2CA [3]) | inhibitory effect on the activity of PP2CA with respect to PYL4 (PP2CA [3]; listed as PYL4^A194T) [%] | inhibition of PP2CA (PP2CA [3]; presence of 1 μM ABA)
1 | B1 | binds | did not affect PP2CA activity | – | – | –
2 | B2 | – | – | around 20% | 20 | higher inhibition of PP2CA than PYL4

From patent publication US20160068860A1, “TRANSGENIC PLANTS” (CONSEJO SUPERIOR DE INVESTIGACIONES CIENTIFICAS (CSIC), priority 2013, published 2016)
